Experimental data published in PMC7289447.
Changes are numbered by the printed parent chain. In names and notes the source's numbering stands.

T1: Hsc20 M51Bpa, P53193
T1 chain: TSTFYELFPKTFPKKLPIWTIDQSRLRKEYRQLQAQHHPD

T2: Hsc20 Q46Bpa, P53193
T2 chain: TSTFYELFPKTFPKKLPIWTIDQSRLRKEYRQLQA

B1: Ssq1 wild-type D246A; E253A (protein)
chain: MLKSGRLNFLKLNINSRLLYSTNPQLTKKVIGIDLGTTNSAVAYIRDSNDKKSATIIENDEGQRTTPSIVAFDVKSSPQNKDQMKTLVGMAAKRQNAINSENTFFATKRLIGRAFNDKEVQRDMAVMPYKIVKCESNGQAYLSTSNGLIQSPSQIASILLKYLKQTSEEYLGEKVNLAVITVPAYFNDSQRQATKDAGKLAGLNVLRVINEPTAAALSFGIDDKRNNGLIAVYDLGGGTFDISILAIEDGVFAVRATNGDTHLGGEDFDNVIVNYIIDTFIHENPEITREEITKNRETMQRLKDVSERAKIDLSHVKKTFIELPFVYKSKHLRVPMTEEELDNMTLSLINRTIPPVKQALKDADIEPEDIDEVILVGGMTRMPKIRSVVKDLFGKSPNSSVNPDETVALGAAIQGGILSGEIKNVLLLDVTPLTLGIETFGGAFSPLIPRNTTVPVKKTEIFSTGVDGQAGVDIKVFQGERGLVRNNKLIGDLKLTGITPLPKGIPQIYVTFDIDADGIINVSAAEKSSGKQQSITVIPNSGLSEEEIAKLIEEANANRAQDNLIRQRLELISKADIMISDTENLFKRYEKLISSEKEYSNIVEDIKALRQAIKNFKANENDMSIDVNGIKKATDALQGRALKLFQSATKNQQNQGK
B2: Ssq1 wild-type E248A; D249A (protein)
chain: B1 chain with A246D, E248A, D249A, A253E

Experiments:
Hsc20 M51Bpa, P53193 = target: T1, Hsc20 M51Bpa, P53193; assay: site-specific Bpa photo-crosslinking, SDS-PAGE band quantification; details: chain shown with the change; in the presence of ATP; UV irradiation; parent: est. 1.0; read off a plot
Hsc20 Q46Bpa, P53193 = target: T2, Hsc20 Q46Bpa, P53193; assay: as above; details: chain shown with the change; in the presence of ATP; UV irradiation; parent: est. 1.0; read off a plot

| Binder | ratio to parent (Hsc20 M51Bpa, P53193) | ratio to parent (Hsc20 Q46Bpa, P53193) |
| --- | --- | --- |
| B1 | 0.11 | 0.22 |
| B2 | 0.22 | 0.28 |
